Here are results for 7 compounds from US11767353B2, “Trail compositions with reduced immunogenicity” (Theraly Fibrosis, Inc., priority 2020, dated 2023).

Like-named read-outs stand apart in the source and are kept apart here.

For data set [1] the following is noted: in mice; cited from earlier work.
For the next data set, the system named is ASPC-1/PSC xenografts. The experiment in a line: PSC/ASPC-1 subcutaneous xenograft in athymic nude mice. In kind it is in vivo. The settings on record: TLY012 IV 10 mg/kg every other day and/or sorafenib 20 mg/kg oral everyday for 2 weeks. The procedure: Six-week-old athymic nude mice were anesthetized for all procedures 5×10^6ASPC-1 cells (human pancreas adenocarcinoma ascites metastasis cell line derived from nude mouse xenografts initiated with cells from the ascites of a patient with cancer of the pancreas) were mixed with 5×10^4 PSC cells and injected in a subcutaneous in athymic nude mice. Before injection, the cells were trypsinized, counted, washed twice in 1×PBS and resuspended in 100 μl of Matrigel® matrix (Corning), and injected between the scapulae. Two weeks after the tumor transplantation, mice were injected with TLY012 via intravenous (IV) injection (10 mg/kg, every other day) for 2 weeks, while control mice received PBS. Western blot was performed on tissue extracts with antibodies against GAPDH (Santa Cruz 5 Biotechnology, sc-1694), α-SMA (Sigma, A2547), GRP78 (Santa Cruz Biotechnology, sc-13968), DR4 (Abcam, Cambridge, Mass., #13890), DR5 (Abcam, #47179), PDGF-Rb (Santa Cruz Biotechnology, sc-432), and Cl.PARP-1 (Cell Signaling Technology, #5625).
Comparative quantitative RT-PCR (qPCR) was performed in the tumor sample for fibrogenic markers. qPCR was performed in triplicate for each sample using fast SYBR Green Master Mix (Thermo Fisher Scientific) and StepOnePlus Real-Time PCR System (Thermo Fisher Scientific). The expression levels of target genes were normalized to the expression of 18s and calculated based on the comparative cycle threshold Ct method (2^−ΔΔCt).
Collagen deposition was detected with Masson's Trichrome staining and microscopy.
Mouse xenografts were generated as in Example 8. Two weeks after the tumor transplantation, mice were injected with TLY012 via intravenous (IV) injection (10 mg/kg, every other day) and/or sorafenib (20 mg/kg, oral everyday) for 2 weeks. The mice were euthanized when the tumor volume reached 1500 mm^3 and images of the excised xenografts recorded and tumor weight measured.

The conditions of data set [2]: in apes; cited from earlier work.
For data set [3] the following is noted: in rodents; cited from earlier work.

Turning to “2K-PEG-TRAIL: 2K PEG derivatized TRAIL reported by Kim et al. 2011a”, the circulating half-life in data set [1] is given as 3.9 h. Take “5K-PEG-TRAIL: 5K PEG derivatized TRAIL reported by Kim et al. 2011a”: in data set [1], the circulating half-life is given as 5.3 h. For “10K-PEG-TRAIL: 10K PEG derivatized TRAIL reported by Kim et al. 2011a”, the circulating half-life in data set [1] is on record as 6.2 h.

For “20K-PEG-TRAIL: 20K PEG derivatized TRAIL reported by Kim et al. 2011a”, the circulating half-life in data set [1] is reported as 12.3 h. In the case of “30K-PEG-TRAIL: 30K PEG derivatized TRAIL reported by Kim et al. 2011a”, the circulating half-life in data set [1] is on record as 17.7 h. Consider `CNC(=O)c1cc(Oc2ccc(NC(=O)Nc3ccc(Cl)c(C(F)(F)F)c3)cc2)ccn1` [Sorafenib, reference compound], for which the “tumor weight, Mean” value in the data set on ASPC-1/PSC xenografts was found to be 967 mg. Regarding “TRAIL: Tumor necrosis factor-related apoptosis-inducing ligand, unmodified, literature values”, the circulating half-life in data set [1] is given as 1.1 h. For the same compound, the half-life entry in data set [2] is on record as “about 30 minutes”; in data set [3] it was “several minutes”.
